Experimental data taken from paper PMC9482650, “Quantitative fragmentomics allow affinity mapping of interactomes” (Nature Communications, 2022).

T1: TIAM2, Q8IVF5
T1 sequence (Q8IVF5 885-986, limits assumed, looked up): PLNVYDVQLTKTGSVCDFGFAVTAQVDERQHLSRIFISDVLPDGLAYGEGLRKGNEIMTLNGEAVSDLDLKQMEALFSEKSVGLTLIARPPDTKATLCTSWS

T2: GRIP1_2, Q9Y3R0
T2 sequence (Q9Y3R0 145-248, limits assumed, looked up): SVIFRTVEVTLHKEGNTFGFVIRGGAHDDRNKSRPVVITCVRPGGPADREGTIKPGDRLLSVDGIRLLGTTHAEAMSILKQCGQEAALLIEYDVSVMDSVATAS

T3: RHPN1, Q8TCX5
T3 sequence (Q8TCX5 508-602, limits assumed, looked up): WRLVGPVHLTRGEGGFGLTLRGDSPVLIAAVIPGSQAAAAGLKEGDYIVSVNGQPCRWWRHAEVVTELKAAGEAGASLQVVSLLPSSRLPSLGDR

T4: APBA1_1, Q02410
T4 sequence (Q02410 651-752, limits assumed, looked up): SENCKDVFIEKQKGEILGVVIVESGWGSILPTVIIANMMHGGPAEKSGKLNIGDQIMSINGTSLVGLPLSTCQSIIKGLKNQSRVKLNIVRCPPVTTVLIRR

T5: MPDZ_5, O75970
T5 sequence (O75970 695-796, limits assumed, looked up): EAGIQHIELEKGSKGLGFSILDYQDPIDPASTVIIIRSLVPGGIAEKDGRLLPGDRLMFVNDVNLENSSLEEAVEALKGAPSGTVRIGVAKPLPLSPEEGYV

T6: MPDZ_12, O75970
T6 sequence (O75970 1857-1958, limits assumed, looked up): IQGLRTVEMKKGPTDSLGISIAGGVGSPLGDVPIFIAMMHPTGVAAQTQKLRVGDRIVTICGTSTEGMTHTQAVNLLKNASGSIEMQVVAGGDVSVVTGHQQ

T7: PTPN13_1, Q12923
T7 sequence (Q12923 1088-1188, limits assumed, looked up): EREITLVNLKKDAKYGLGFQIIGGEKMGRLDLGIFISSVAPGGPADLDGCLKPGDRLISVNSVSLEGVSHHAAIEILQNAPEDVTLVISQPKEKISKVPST

T8: RAPGEF6, Q8TEU7
T8 sequence (Q8TEU7 525-625, limits assumed, looked up): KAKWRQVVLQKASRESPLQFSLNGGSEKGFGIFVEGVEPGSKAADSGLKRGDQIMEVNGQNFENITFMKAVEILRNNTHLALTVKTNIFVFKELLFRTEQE

T9: LNX2_3, Q8N448
T9 sequence (Q8N448 463-564, limits assumed, looked up): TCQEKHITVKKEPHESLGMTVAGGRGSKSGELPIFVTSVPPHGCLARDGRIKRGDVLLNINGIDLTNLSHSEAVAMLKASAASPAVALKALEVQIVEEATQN

T10: PDZD2_2, O15018
T10 sequence (O15018 329-429, limits assumed, looked up): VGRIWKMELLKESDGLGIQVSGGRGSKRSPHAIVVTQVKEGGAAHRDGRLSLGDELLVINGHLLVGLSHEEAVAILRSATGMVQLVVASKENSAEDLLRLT


molecular target: T1, TIAM2, Q8IVF5; assay: holdup assay; set-up: key: below the threshold = too weak to quantify, mostly under pKd 3.1 to 4; settings: plain residues with an end cap or a label only (N-terminal biotin on a linker: ado-ado)

pKd | Binder
4.05 | LPPPESESKV [KCNJ9, Q92806]
below the threshold | KKTPVSRSHL [SLC22A3, O75751]

molecular target: T2, GRIP1_2, Q9Y3R0; assay: holdup assay; set-up: key: below the threshold = too weak to quantify, mostly under pKd 3.1 to 4; settings: plain residues with an end cap or a label only (N-terminal biotin on a linker: ado-ado)

pKd | Binder
below the threshold | LPPPESESKV [KCNJ9, Q92806]
below the threshold | KKTPVSRSHL [SLC22A3, O75751]

molecular target: T3, RHPN1, Q8TCX5; assay: holdup assay; set-up: key: below the threshold = too weak to quantify, mostly under pKd 3.1 to 4; settings: plain residues with an end cap or a label only (N-terminal biotin on a linker: ado-ado)

pKd | Binder
4.44 | LPPPESESKV [KCNJ9, Q92806]
below the threshold | KKTPVSRSHL [SLC22A3, O75751]

molecular target: DLG1_1, Q12959; assay: holdup assay; set-up: key: below the threshold = too weak to quantify, mostly under pKd 3.1 to 4; settings: plain residues with an end cap or a label only (N-terminal biotin on a linker: ado-ado)

pKd | Binder
below the threshold | LPPPESESKV [KCNJ9, Q92806]
below the threshold | KKTPVSRSHL [SLC22A3, O75751]

molecular target: FRMPD2_1, Q68DX3; assay: holdup assay; set-up: key: below the threshold = too weak to quantify, mostly under pKd 3.1 to 4; settings: plain residues with an end cap or a label only (N-terminal biotin on a linker: ado-ado)
Sequence (Q68DX3 770-861): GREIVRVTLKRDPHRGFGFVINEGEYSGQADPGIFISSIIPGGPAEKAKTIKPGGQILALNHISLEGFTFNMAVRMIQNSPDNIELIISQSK

pKd | Binder
below the threshold | LPPPESESKV [KCNJ9, Q92806]
below the threshold | KKTPVSRSHL [SLC22A3, O75751]

molecular target: T4, APBA1_1, Q02410; assay: holdup assay; set-up: key: below the threshold = too weak to quantify, mostly under pKd 3.1 to 4; settings: plain residues with an end cap or a label only (N-terminal biotin on a linker: ado-ado)

pKd | Binder
below the threshold | LPPPESESKV [KCNJ9, Q92806]
below the threshold | KKTPVSRSHL [SLC22A3, O75751]

molecular target: LAP2, Q96RT1; assay: holdup assay; set-up: key: below the threshold = too weak to quantify, mostly under pKd 3.1 to 4; settings: plain residues with an end cap or a label only (N-terminal biotin on a linker: ado-ado)
Sequence (Q96RT1 other isoform, or with tags, fused parts or gaps): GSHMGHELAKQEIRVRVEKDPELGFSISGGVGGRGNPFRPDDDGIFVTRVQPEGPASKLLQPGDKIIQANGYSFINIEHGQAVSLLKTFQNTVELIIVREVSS

pKd | Binder
3.85 | LPPPESESKV [KCNJ9, Q92806]
below the threshold | KKTPVSRSHL [SLC22A3, O75751]

molecular target: LNX1_2, Q8TBB1; assay: holdup assay; set-up: key: below the threshold = too weak to quantify, mostly under pKd 3.1 to 4; settings: plain residues with an end cap or a label only (N-terminal biotin on a linker: ado-ado)
Sequence (Q8TBB1 371-470): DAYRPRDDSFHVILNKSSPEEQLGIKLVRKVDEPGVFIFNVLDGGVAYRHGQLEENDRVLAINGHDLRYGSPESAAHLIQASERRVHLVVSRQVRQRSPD

pKd | Binder
below the threshold | LPPPESESKV [KCNJ9, Q92806]
below the threshold | KKTPVSRSHL [SLC22A3, O75751]

molecular target: T5, MPDZ_5, O75970; assay: holdup assay; set-up: key: below the threshold = too weak to quantify, mostly under pKd 3.1 to 4; settings: plain residues with an end cap or a label only (N-terminal biotin on a linker: ado-ado)

pKd | Binder
below the threshold | LPPPESESKV [KCNJ9, Q92806]
below the threshold | KKTPVSRSHL [SLC22A3, O75751]

molecular target: MAGI2_2, Q86UL8; assay: holdup assay; set-up: key: below the threshold = too weak to quantify, mostly under pKd 3.1 to 4; settings: plain residues with an end cap or a label only (N-terminal biotin on a linker: ado-ado)
Sequence (Q86UL8 410-522): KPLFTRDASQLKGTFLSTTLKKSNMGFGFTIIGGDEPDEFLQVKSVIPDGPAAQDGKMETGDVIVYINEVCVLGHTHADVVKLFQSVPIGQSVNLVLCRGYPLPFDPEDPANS

pKd | Binder
below the threshold | LPPPESESKV [KCNJ9, Q92806]
below the threshold | KKTPVSRSHL [SLC22A3, O75751]

molecular target: PARD3_3, Q8TEW0; assay: holdup assay; set-up: key: below the threshold = too weak to quantify, mostly under pKd 3.1 to 4; settings: plain residues with an end cap or a label only (N-terminal biotin on a linker: ado-ado)
Sequence (Q8TEW0 582-685): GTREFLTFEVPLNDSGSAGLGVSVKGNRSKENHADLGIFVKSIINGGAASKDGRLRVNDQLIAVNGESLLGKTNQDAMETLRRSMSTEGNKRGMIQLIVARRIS

pKd | Binder
below the threshold | LPPPESESKV [KCNJ9, Q92806]
below the threshold | KKTPVSRSHL [SLC22A3, O75751]

molecular target: T6, MPDZ_12, O75970; assay: holdup assay; set-up: key: below the threshold = too weak to quantify, mostly under pKd 3.1 to 4; settings: plain residues with an end cap or a label only (N-terminal biotin on a linker: ado-ado)

pKd | Binder
below the threshold | LPPPESESKV [KCNJ9, Q92806]
below the threshold | KKTPVSRSHL [SLC22A3, O75751]

molecular target: DLG4_3, P78352; assay: holdup assay; set-up: key: below the threshold = too weak to quantify, mostly under pKd 3.1 to 4; settings: plain residues with an end cap or a label only (N-terminal biotin on a linker: ado-ado)
Sequence (P78352 306-403): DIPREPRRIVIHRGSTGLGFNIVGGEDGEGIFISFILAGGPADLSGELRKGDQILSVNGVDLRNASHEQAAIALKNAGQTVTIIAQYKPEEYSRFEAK

pKd | Binder
below the threshold | LPPPESESKV [KCNJ9, Q92806]
below the threshold | KKTPVSRSHL [SLC22A3, O75751]

molecular target: T7, PTPN13_1, Q12923; assay: holdup assay; set-up: key: below the threshold = too weak to quantify, mostly under pKd 3.1 to 4; settings: plain residues with an end cap or a label only (N-terminal biotin on a linker: ado-ado)

pKd | Binder
below the threshold | LPPPESESKV [KCNJ9, Q92806]
below the threshold | KKTPVSRSHL [SLC22A3, O75751]

molecular target: T8, RAPGEF6, Q8TEU7; assay: holdup assay; set-up: key: below the threshold = too weak to quantify, mostly under pKd 3.1 to 4; settings: plain residues with an end cap or a label only (N-terminal biotin on a linker: ado-ado)

pKd | Binder
below the threshold | LPPPESESKV [KCNJ9, Q92806]
below the threshold | KKTPVSRSHL [SLC22A3, O75751]

molecular target: T9, LNX2_3, Q8N448; assay: holdup assay; set-up: key: below the threshold = too weak to quantify, mostly under pKd 3.1 to 4; settings: plain residues with an end cap or a label only (N-terminal biotin on a linker: ado-ado)

pKd | Binder
below the threshold | LPPPESESKV [KCNJ9, Q92806]
below the threshold | KKTPVSRSHL [SLC22A3, O75751]

molecular target: SNX27, Q96L92; assay: holdup assay; set-up: key: below the threshold = too weak to quantify, mostly under pKd 3.1 to 4; settings: plain residues with an end cap or a label only (N-terminal biotin on a linker: ado-ado)

pKd | Binder
5.43 | LPPPESESKV [KCNJ9, Q92806]
3.65 | KKTPVSRSHL [SLC22A3, O75751]

molecular target: DLG4_1, P78352; assay: holdup assay; set-up: key: below the threshold = too weak to quantify, mostly under pKd 3.1 to 4; settings: plain residues with an end cap or a label only (N-terminal biotin on a linker: ado-ado)
Sequence (P78352 62-152): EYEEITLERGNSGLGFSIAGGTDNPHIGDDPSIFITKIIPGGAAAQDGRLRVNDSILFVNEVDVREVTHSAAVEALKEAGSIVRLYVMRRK

pKd | Binder
below the threshold | LPPPESESKV [KCNJ9, Q92806]
3.55 | KKTPVSRSHL [SLC22A3, O75751]

molecular target: GRIP2_3, Q9C0E4; assay: holdup assay; set-up: key: below the threshold = too weak to quantify, mostly under pKd 3.1 to 4; settings: plain residues with an end cap or a label only (N-terminal biotin on a linker: ado-ado)
Sequence (Q9C0E4 238-339): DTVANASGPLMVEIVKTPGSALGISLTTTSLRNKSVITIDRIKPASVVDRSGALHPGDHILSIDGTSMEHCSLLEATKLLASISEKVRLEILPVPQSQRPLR

pKd | Binder
below the threshold | LPPPESESKV [KCNJ9, Q92806]
below the threshold | KKTPVSRSHL [SLC22A3, O75751]

molecular target: DLG2_3, Q15700; assay: holdup assay; set-up: key: below the threshold = too weak to quantify, mostly under pKd 3.1 to 4; settings: plain residues with an end cap or a label only (N-terminal biotin on a linker: ado-ado)

pKd | Binder
3.7 | LPPPESESKV [KCNJ9, Q92806]
below the threshold | KKTPVSRSHL [SLC22A3, O75751]

molecular target: Inadl_1, Q8NI35; assay: holdup assay; set-up: key: below the threshold = too weak to quantify, mostly under pKd 3.1 to 4; settings: plain residues with an end cap or a label only (N-terminal biotin on a linker: ado-ado)
Sequence (Q8NI35 113-229): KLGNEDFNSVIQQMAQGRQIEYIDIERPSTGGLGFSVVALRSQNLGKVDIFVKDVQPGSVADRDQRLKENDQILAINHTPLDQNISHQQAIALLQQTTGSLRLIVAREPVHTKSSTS

pKd | Binder
below the threshold | LPPPESESKV [KCNJ9, Q92806]
below the threshold | KKTPVSRSHL [SLC22A3, O75751]

molecular target: FRMPD3, Q5JV73; assay: holdup assay; set-up: key: below the threshold = too weak to quantify, mostly under pKd 3.1 to 4; settings: plain residues with an end cap or a label only (N-terminal biotin on a linker: ado-ado)
Sequence (Q5JV73 12-100): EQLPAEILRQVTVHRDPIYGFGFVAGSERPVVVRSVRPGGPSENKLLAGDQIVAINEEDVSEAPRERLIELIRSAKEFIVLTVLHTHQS

pKd | Binder
below the threshold | LPPPESESKV [KCNJ9, Q92806]
below the threshold | KKTPVSRSHL [SLC22A3, O75751]

molecular target: T10, PDZD2_2, O15018; assay: holdup assay; set-up: key: below the threshold = too weak to quantify, mostly under pKd 3.1 to 4; settings: plain residues with an end cap or a label only (N-terminal biotin on a linker: ado-ado)

pKd | Binder
4.81 | LPPPESESKV [KCNJ9, Q92806]
below the threshold | KKTPVSRSHL [SLC22A3, O75751]

molecular target: GRIP2_7, Q9C0E4; assay: holdup assay; set-up: key: below the threshold = too weak to quantify, mostly under pKd 3.1 to 4; settings: plain residues with an end cap or a label only (N-terminal biotin on a linker: ado-ado)
Sequence (Q9C0E4 934-1023): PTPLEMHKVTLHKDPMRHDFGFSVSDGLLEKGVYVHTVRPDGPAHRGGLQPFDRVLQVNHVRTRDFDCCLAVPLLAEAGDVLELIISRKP

pKd | Binder
below the threshold | LPPPESESKV [KCNJ9, Q92806]
below the threshold | KKTPVSRSHL [SLC22A3, O75751]

molecular target: HTRA2, O43464; assay: holdup assay; set-up: key: below the threshold = too weak to quantify, mostly under pKd 3.1 to 4; settings: plain residues with an end cap or a label only (N-terminal biotin on a linker: ado-ado)
Sequence (O43464 355-458): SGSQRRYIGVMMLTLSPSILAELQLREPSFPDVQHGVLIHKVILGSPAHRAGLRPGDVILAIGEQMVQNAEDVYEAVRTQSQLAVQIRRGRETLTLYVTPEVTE

pKd | Binder
below the threshold | LPPPESESKV [KCNJ9, Q92806]
below the threshold | KKTPVSRSHL [SLC22A3, O75751]

molecular target: NHERF4_1, Q86UT5-2; assay: holdup assay; set-up: key: below the threshold = too weak to quantify, mostly under pKd 3.1 to 4; settings: plain residues with an end cap or a label only (N-terminal biotin on a linker: ado-ado)
Sequence (Q86UT5 other isoform, or with tags, fused parts or gaps): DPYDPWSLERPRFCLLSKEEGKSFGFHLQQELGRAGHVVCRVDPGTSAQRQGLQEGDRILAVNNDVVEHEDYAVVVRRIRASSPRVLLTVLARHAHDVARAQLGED

pKd | Binder
below the threshold | LPPPESESKV [KCNJ9, Q92806]
3.94 | KKTPVSRSHL [SLC22A3, O75751]

molecular target: MAST2, Q6P0Q8; assay: holdup assay; set-up: key: below the threshold = too weak to quantify, mostly under pKd 3.1 to 4; settings: plain residues with an end cap or a label only (N-terminal biotin on a linker: ado-ado)
Sequence (Q6P0Q8 1099-1202): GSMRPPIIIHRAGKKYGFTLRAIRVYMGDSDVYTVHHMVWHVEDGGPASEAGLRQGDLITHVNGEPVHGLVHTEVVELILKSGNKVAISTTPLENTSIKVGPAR

pKd | Binder
4.9 | LPPPESESKV [KCNJ9, Q92806]
4.69 | KKTPVSRSHL [SLC22A3, O75751]

molecular target: NOS1, P29475; assay: holdup assay; set-up: key: below the threshold = too weak to quantify, mostly under pKd 3.1 to 4; settings: plain residues with an end cap or a label only (N-terminal biotin on a linker: ado-ado)
Sequence (P29475 9-101): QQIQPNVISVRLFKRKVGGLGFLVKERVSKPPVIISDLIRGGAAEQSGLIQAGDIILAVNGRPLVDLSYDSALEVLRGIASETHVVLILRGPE

pKd | Binder
below the threshold | LPPPESESKV [KCNJ9, Q92806]
below the threshold | KKTPVSRSHL [SLC22A3, O75751]
